Test results reported in US20260015420A1 (CENTESSA PHARMACEUTICALS UK, published 2026).
Like-named read-outs stand apart in the source and are kept apart here. Values belong to the molecule of their own block, whether it stands above or below them.

Legend:
Insulin = assay: ELISA on coated insulin, OD450
human CD47-Fc [1] = target: T1, human CD47-Fc (human, UniProt Q08722 19-139); assay: HTRF competition with labelled h5F9G4 IgG1 (m11) for human CD47-Fc, 665/615 ratio
T1 construct: also called hCD47; human CD47-Fc protein; not shown: Fc part

[2] = target: T2, cynomolgus monkey CD47-Fc (cynomolgus monkey, UniProt Q08722 19-139 (human entry), limits assumed); assay: direct ELISA, coated cyno CD47-Fc, OD450
T2 construct: also called cCD47; cyno CD47-Fc; not shown: Fc part
T2 chain: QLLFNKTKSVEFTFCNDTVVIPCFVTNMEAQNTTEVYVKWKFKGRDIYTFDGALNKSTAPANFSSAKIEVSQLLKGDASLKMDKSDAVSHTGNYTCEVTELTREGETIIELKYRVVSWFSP

human CD47-Fc [3] = target: T1, human CD47-Fc; assay: direct ELISA, coated human CD47-Fc, OD450
[4] = target: T3, cynomolgus monkey CD47 on cyno CD47-transfected CHO-K1 cells (cynomolgus monkey, UniProt Q08722 19-323 (human entry)); assay: flow cytometry, CHO-K1 cells transfected with cyno CD47, MFI
T3 construct: CHO-K1 cells stably transfected with cyno CD47 full-length cDNA; also called cyno CD47+ cells; cyno CD47+CHO-K1
T3 chain: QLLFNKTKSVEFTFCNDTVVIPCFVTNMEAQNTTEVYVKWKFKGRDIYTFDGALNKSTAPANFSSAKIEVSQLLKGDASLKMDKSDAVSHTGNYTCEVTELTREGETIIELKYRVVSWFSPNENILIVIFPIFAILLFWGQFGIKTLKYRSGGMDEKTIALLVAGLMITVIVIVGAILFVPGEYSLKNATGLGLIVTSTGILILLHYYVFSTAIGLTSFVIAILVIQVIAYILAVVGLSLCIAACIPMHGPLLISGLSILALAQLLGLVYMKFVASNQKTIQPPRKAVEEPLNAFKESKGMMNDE

human CD47-Fc [5] = target: T1, human CD47-Fc; assay: HTRF epitope competition; competitor Tb-labelled h5F9G4 IgG1 on biotinylated human CD47-Fc
human CD47-Fc [6] = target: T1, human CD47-Fc; assay: direct ELISA, coated human CD47-Fc, OD450; remark: listed apart in the source
human CD47-Fc [7] = target: T1, human CD47-Fc; assay: competition ELISA: human CD47-Fc binding to plate-bound human SIRPa-Fc, % binding
[8] = target: T4, Cyno CD47 (Biacore steady state analysis) (cynomolgus monkey, UniProt Q08722 19-139 (human entry), limits assumed); assay: Biacore SPR, steady state affinity, monomeric Fab
T4 construct: The construct on the Biacore chip is not described (possibly CD47-Fc)
T4 chain: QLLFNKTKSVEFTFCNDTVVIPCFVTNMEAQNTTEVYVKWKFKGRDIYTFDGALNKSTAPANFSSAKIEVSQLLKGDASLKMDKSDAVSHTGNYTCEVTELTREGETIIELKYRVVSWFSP

[9] = target: T2, cynomolgus monkey CD47-Fc; assay: competition ELISA: cyno CD47-Fc binding to plate-bound human SIRPa-Fc, OD450
human CD47-Fc [10] = target: T1, human CD47-Fc; assay: competition ELISA: human CD47-Fc binding to plate-bound human SIRPa-Fc, OD450
human CD47-Fc [11] = target: T1, human CD47-Fc; assay: HTRF competition with labelled h5F9G4 IgG1 (m11) for human CD47-Fc, 665/615 ratio; remark: listed apart in the source

Sequence of Insulin (P01308 25-54, chain 1 of 2): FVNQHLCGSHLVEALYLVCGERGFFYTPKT
Sequence of Insulin (P01308 90-110, chain 2 of 2): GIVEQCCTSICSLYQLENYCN

Molecule: Bococizumab human IgG1 analogue (antibody)
EC50 (read off the curve) (Insulin): 0.02 µg/mL

B1: F-E5, human IgG1null (antibody, V domains shown)
VH: EVQLVQSGAEVKKPGESLKISCKGSGYSFTNYNIHWVRQMPGKGLEWMGTIYPGNSDTSYNPKFQGQVTISADKSISTAYLQWSSLKASDTAMYYCARGGKRAMDYWGQGTLVTVSS
VL: DIVMTQSPLSLPVTPGEPASISCRSSQSLLHSNGNTYLGWYLQKPGQSPQLLIYKGSNRFSGVPDRFSGSGSGTDFTLKISRVEAEDVGVYYCMQASQVPYTFGQGTKLEIK
notes: framework limits derived from the Unified CDR definitions; IgG1null; also called Clone F-E5
IC50 (read off the curve) (human CD47-Fc [1]): ~4 µg/mL
binding result [2]: binds
EC50 (read off the curve) (human CD47-Fc [3]): ~0.06 µg/mL

B4: FAB VH1.8/1.6DI (Fab, V domains shown)
VH: QVQLVQSGAEVKKPGASVKVSCKASGYTFTNYAMHWVRQAPGQRLEWMGTIYPGNDDTKYNQKFQGRVTITADTSASTAYMELSSLRSEDTAVYYCARGGFRAMDYWGQGTLVTVSS
VL: DIVMTQSPLSLPVTPGEPASISCRSSQSLLHSNANTYLGWYLQKPGQSPQLAIYKGSNRFSGVPDRFSGSGSGTDFTLKISRVEAEDAGVYYCFQASHVPYTFGQGTKLEIK
notes: Fab expressed as soluble monomer; VL carries the two deimmunising alanine substitutions; also called VH1.8/VL1.6-DI Fab
Kd [8]: 27.8 nM

B6: IGHV5-51 graft IgG (IGKV2-28/IGHV5-51 graft), human IgG1null (antibody, V domains shown)
VH: EVQLVQSGAEVKKPGESLKISCKGSGYSFTNYNMHWVRQMPGKGLEWMGTIYPGNDDTSYNQKFQGQVTISADKSISTAYLQWSSLKASDTAMYYCARGGYRAMDYWGQGTLVTVSS
VL: DIVMTQSPLSLPVTPGEPASISCRSSQSIVYSNGNTYLGWYLQKPGQSPQLLIYKVSNRFSGVPDRFSGSGSGTDFTLKISRVEAEDVGVYYCFQGSHVPYTFGQGTKLEIK
notes: IgG1null; also called IGHV5-51 grafted IgG; IGHV5-51-grafted IgG
IC50 (read off the curve) [9]: ~5 nM
IC50 (read off the curve) (human CD47-Fc [10]): ~4 nM
IC50 (read off the curve) (human CD47-Fc [11]): ~0.3 µg/mL

B7: FAB VH1.8/1.6 (Fab, V domains shown)
VH: QVQLVQSGAEVKKPGASVKVSCKASGYTFTNYAMHWVRQAPGQRLEWMGTIYPGNDDTKYNQKFQGRVTITADTSASTAYMELSSLRSEDTAVYYCARGGFRAMDYWGQGTLVTVSS
VL: DIVMTQSPLSLPVTPGEPASISCRSSQSLLHSNANTYLGWYLQKPGQSPQLLIYKGSNRFSGVPDRFSGSGSGTDFTLKISRVEAEDVGVYYCFQASHVPYTFGQGTKLEIK
notes: Fab expressed as soluble monomer; also called VH1.8/VL1.6 Fab
Kd [8]: 25.9 nM

B8: FAB VH1.8/1.1 (Fab, V domains shown)
VH: QVQLVQSGAEVKKPGASVKVSCKASGYTFTNYAMHWVRQAPGQRLEWMGTIYPGNDDTKYNQKFQGRVTITADTSASTAYMELSSLRSEDTAVYYCARGGFRAMDYWGQGTLVTVSS
VL: DIVMTQSPLSLPVTPGEPASISCRSSQSLLHSNGNTYLGWYLQKPGQSPQLLIYKGSNRFSGVPDRFSGSGSGTDFTLKISRVEAEDVGVYYCFQASHVPYTFGQGTKLEIK
notes: Fab expressed as soluble monomer; also called VH1.8/VL1.1 Fab
Kd [8]: 17.9 nM

B12: D6 IgG, human IgG1null (antibody, V domains shown)
VH: EVQLVQSGAEVKKPGESLKISCKGSGYSFTNYNIHWVRQMPGKGLEWMGTIYPGNSDTSYNPSFQGQVTISADKSISTAYLQWSSLKASDTAMYYCARGGVRAMDYWGQGTLVTVSS
VL: DIVMTQSPLSLPVTPGEPASISCRSSQSLLHSNGNTYLGWYLQKPGQSPQLLIYKGSNRFSGVPDRFSGSGSGTDFTLKISRVEAEDVGVYYCMQASQVPYTFGQGTKLEIK
notes: The text prints both D6 and D-A6 for what reads as the same clone; IgG1null; also called D-A6 IgG; Clone D6
IC50 (read off the curve) (human CD47-Fc [11]): ~4 µg/mL
binding result [2]: binds
EC50 (read off the curve) (human CD47-Fc [3]): ~0.09 µg/mL

B13: E-A1, human IgG1null (antibody, V domains shown)
VH: EVQLVQSGAEVKKPGESLKISCKGSGYSFTNYNIHWVRQMPGKGLEWMGTIYPGDSDTRYNPKFQGQVTISADKSISTAYLQWSSLKASDTAMYYCARGGYRAEDYWGQGTLVTVSS
VL: DIVMTQSPLSLPVTPGEPASISCRSSQSLLHSNGNTYLGWYLQKPGQSPQLLIYKGSNRFSGVPDRFSGSGSGTDFTLKISRVEAEDVGVYYCMQGSHVPYTFGQGTKLEIK
notes: IgG1null; also called Clone E-A1
IC50 (read off the curve) (human CD47-Fc [1]): ~1 µg/mL
binding result [2]: binds

Next, values leading:

binding result [4]: binds
IC50 (human CD47-Fc [5]): 2.94 µg/mL
EC50 (read off the curve) (human CD47-Fc [6]): ~0.06 µg/mL
IC50 (read off the curve) (human CD47-Fc [7]): ~2 µg/mL
B2: VH1.8/VL1.4, human IgG1null (antibody, V domains shown)
VH: QVQLVQSGAEVKKPGASVKVSCKASGYTFTNYAMHWVRQAPGQRLEWMGTIYPGNDDTKYNQKFQGRVTITADTSASTAYMELSSLRSEDTAVYYCARGGFRAMDYWGQGTLVTVSS
VL: DIVMTQSPLSLPVTPGEPASISCRSSQSLLHSNAYNYLGWYLQKPGQSPQLLIYKGSNRFSGVPDRFSGSGSGTDFTLKISRVEAEDVGVYYCFQASQVPYTFGQGTKLEIK
notes: IgG1null; also called Clone VH1.8/VL1.4

binding result [4]: binds
IC50 (human CD47-Fc [5]): 0.911 µg/mL
EC50 (read off the curve) (human CD47-Fc [6]): ~0.06 µg/mL
IC50 (read off the curve) (human CD47-Fc [7]): ~0.4 µg/mL
B3: VH1.8/VL1.5, human IgG1null (antibody, V domains shown)
VH: QVQLVQSGAEVKKPGASVKVSCKASGYTFTNYAMHWVRQAPGQRLEWMGTIYPGNDDTKYNQKFQGRVTITADTSASTAYMELSSLRSEDTAVYYCARGGFRAMDYWGQGTLVTVSS
VL: DIVMTQSPLSLPVTPGEPASISCRSSQSLLHSNAYNYLGWYLQKPGQSPQLLIYKGSNRFSGVPDRFSGSGSGTDFTLKISRVEAEDVGVYYCFQASHVPYTFGQGTKLEIK
notes: IgG1null; also called Clone VH1.8/VL1.5

binding result [4]: binds
IC50 (human CD47-Fc [5]): 0.586 µg/mL
EC50 (read off the curve) (human CD47-Fc [6]): ~0.06 µg/mL
B5: VH1.8/VL1.2, human IgG1null (antibody, V domains shown)
VH: QVQLVQSGAEVKKPGASVKVSCKASGYTFTNYAMHWVRQAPGQRLEWMGTIYPGNDDTKYNQKFQGRVTITADTSASTAYMELSSLRSEDTAVYYCARGGFRAMDYWGQGTLVTVSS
VL: DIVMTQSPLSLPVTPGEPASISCRSSQSLLHSNGNTYLGWYLQKPGQSPQLLIYKGSNRFSGVPDRFSGSGSGTDFTLKISRVEAEDVGVYYCFQASQVPYTFGQGTKLEIK
notes: IgG1null; also called Clone VH1.8/VL1.2

binding result [4]: binds
IC50 (human CD47-Fc [5]): 0.928 µg/mL
EC50 (read off the curve) (human CD47-Fc [6]): ~0.06 µg/mL
IC50 (read off the curve) (human CD47-Fc [7]): ~0.4 µg/mL
B9: VH1.8/VL1.3, human IgG1null (antibody, V domains shown)
VH: QVQLVQSGAEVKKPGASVKVSCKASGYTFTNYAMHWVRQAPGQRLEWMGTIYPGNDDTKYNQKFQGRVTITADTSASTAYMELSSLRSEDTAVYYCARGGFRAMDYWGQGTLVTVSS
VL: DIVMTQSPLSLPVTPGEPASISCRSSQSLLHSNANTYLGWYLQKPGQSPQLLIYKGSNRFSGVPDRFSGSGSGTDFTLKISRVEAEDVGVYYCFQASQVPYTFGQGTKLEIK
notes: IgG1null; also called Clone VH1.8/VL1.3

binding result [4]: binds
IC50 (human CD47-Fc [5]): 0.56 µg/mL
EC50 (read off the curve) (human CD47-Fc [6]): ~0.06 µg/mL
IC50 (read off the curve) (human CD47-Fc [7]): ~0.3 µg/mL
B10: VH1.8/VL1.6, human IgG1null (antibody, V domains shown)
VH: QVQLVQSGAEVKKPGASVKVSCKASGYTFTNYAMHWVRQAPGQRLEWMGTIYPGNDDTKYNQKFQGRVTITADTSASTAYMELSSLRSEDTAVYYCARGGFRAMDYWGQGTLVTVSS
VL: DIVMTQSPLSLPVTPGEPASISCRSSQSLLHSNANTYLGWYLQKPGQSPQLLIYKGSNRFSGVPDRFSGSGSGTDFTLKISRVEAEDVGVYYCFQASHVPYTFGQGTKLEIK
notes: IgG1null; also called Clone VH1.8/VL1.6

binding result [4]: binds
IC50 (human CD47-Fc [5]): 0.459 µg/mL
EC50 (read off the curve) (human CD47-Fc [6]): ~0.06 µg/mL
B11: VH1.8/VL1.1, human IgG1null (antibody, V domains shown)
VH: QVQLVQSGAEVKKPGASVKVSCKASGYTFTNYAMHWVRQAPGQRLEWMGTIYPGNDDTKYNQKFQGRVTITADTSASTAYMELSSLRSEDTAVYYCARGGFRAMDYWGQGTLVTVSS
VL: DIVMTQSPLSLPVTPGEPASISCRSSQSLLHSNGNTYLGWYLQKPGQSPQLLIYKGSNRFSGVPDRFSGSGSGTDFTLKISRVEAEDVGVYYCFQASHVPYTFGQGTKLEIK
notes: IgG1null (L234A/L235A/G237A); also called Clone VH1.8/VL1.1
